Laboratory results reported in article PMC2291188 (The Journal of Cell Biology, 1995).
Several values for one entry are separate records, joined by “and”; a condition that tells them apart may be missing. Identical values can stand only once.

Molecular target: T1, proPC2 (proform of the prohormone convertase PC2) (UniProt P28841 25-637)
T1 sequence (looked up): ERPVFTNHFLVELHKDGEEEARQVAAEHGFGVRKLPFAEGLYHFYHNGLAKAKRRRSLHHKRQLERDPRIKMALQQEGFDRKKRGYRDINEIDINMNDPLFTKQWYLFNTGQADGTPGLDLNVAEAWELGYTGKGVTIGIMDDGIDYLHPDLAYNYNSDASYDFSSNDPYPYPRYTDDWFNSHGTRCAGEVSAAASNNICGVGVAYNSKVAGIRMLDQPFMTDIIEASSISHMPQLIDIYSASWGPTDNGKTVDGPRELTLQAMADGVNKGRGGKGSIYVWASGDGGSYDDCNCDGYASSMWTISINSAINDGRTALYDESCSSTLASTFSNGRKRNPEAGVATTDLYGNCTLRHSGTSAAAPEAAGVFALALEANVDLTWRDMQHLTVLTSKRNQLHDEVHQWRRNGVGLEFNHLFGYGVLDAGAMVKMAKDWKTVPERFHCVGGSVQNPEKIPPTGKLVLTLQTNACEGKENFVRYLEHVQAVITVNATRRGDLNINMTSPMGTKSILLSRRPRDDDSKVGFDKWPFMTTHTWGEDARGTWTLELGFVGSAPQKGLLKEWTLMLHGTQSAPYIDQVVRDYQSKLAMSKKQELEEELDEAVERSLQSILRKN
Assay: co-IP

B1: 27 kD 7B2 (rat) (natural protein, UniProt P27682 25-210, looked up)
chain: YSPRTPDRVSETDIQRLLHGVMEQLGIARPRVEYPAHQAMNLVGPQSIEGGAHEGLQHLGPFGNIPNIVAELTGDNIPKDFSEDQGYPDPPNPCPLGKTADDGCLENAPDTAEFSREFQLDQHLFDPEHDYPGLGKWNKKLLYEKMKGGQRRKRRSVNPYLQGKRLDNVVAKKSVPHFSEEEKEPE
- stoichiometry N: 1.12 mol 7B2 per mol PC2 (molar ratio, Clone#1) and 1.09 mol 7B2 per mol PC2 (molar ratio, Clone#2)
